Results from US8785135B2, “Mutant G-protein coupled receptors and methods for selecting them” (Heptares Therapeutics Limited, priority 2007, dated 2014).
Where a chain is given by its changes, count along the chain named. Numbers in names are those of the source.

Columns and labels:
[1] = Thermostability of NTR and mutants (3H-neurotensin binding); assay type: physicochemical; settings: for thermostability, heated in the presence of 3H-neurotensin: Ligand(+) format; for thermostability, 3H-neurotensin (agonist) binding after the heating step: heated in the absence of the agonist
[2] = Thermostability of A2aR and mutants (ligand binding after or during heating); assay type: physicochemical; settings: Ligand(−) format, binding after the heating step
Text: FIG. 12 Flow chart showing the two different assay formats of ligand (+) and ligand (−) used to determine receptor thermostability.
• 1. 315 site-directed mutants made between residues 2-316 of A2aR. • 2. All of these mutants have been assayed for thermostability using an assay measuring agonist and antagonist binding after the heating step (Ligand(−) format as described in FIG. 12). • a. […] Mutations have been combined to generate mutants in a putative antagonist conformation. Wildtype A2aR has a Tm of 31° C. with ZM241385 bound. • a. Rant17 A54L+K122A+L235A Tm 48° C. (ZM241385 bound) • b. Rant19 A54L, T88A, V239A+A204L Tm 47° C. (ZM241385 bound) • c. Rant21 A54L, T88A, V239A+K122A Tm 49° C. (ZM241385 bound) • 4. Mutations from the agonist screen have been combined, but have led to only a very low level of improvement in Tm of +2° C.

B1: T294A: NTR point mutant (protein, UniProt P20789 1-424, looked up, variant T294A)
Neurotensin receptor type 1: MHLNSSVPQGTPGEPDAQPFSGPQSEMEATFLALSLSNGSGNTSESDTAGPNSDLDVNTDIYSKVLVTAIYLALFVVGTVGNSVTAFTLARKKSLQSLQSTVHYHLGSLALSDLLILLLAMPVELYNFIWVHHPWAFGDAGCRGYYFLRDACTYATALNVASLSVERYLAICHPFKAKTLMSRSRTKKFISAIWLASALLAIPMLFTMGLQNRSGDGTHPGGLVCTPIVDTATVKVVIQVNTFMSFLFPMLVISILNTVIANKLTVMVHQAAEQGRVCTVGTHNGLEHSTFNMAIEPGRVQALRHGVLVLRAVVIAFVVCWLPYHVRRLMFCYISDEQWTTFLFDFYHYFYMLTNALFYVSSAINPILYNLVSANFRQVFLSTLACLCPGWRHRRKKRPTFSRKPNSMSSNHAFSTSATRETLY
[1]
  thermostability, heated in the presence of 3H-neurotensin: improved thermostability

B2: R395A: NTR point mutant (protein, UniProt P20789 1-424, looked up, variant R395A)
Neurotensin receptor type 1: B1 Neurotensin receptor type 1 with A294T, R395A
[1]
  thermostability, heated in the presence of 3H-neurotensin: improved thermostability

B3: A86L: NTR point mutant (protein, UniProt P20789 1-424, looked up, variant A86L)
Neurotensin receptor type 1: B1 Neurotensin receptor type 1 with A86L, A294T
[1]
  thermostability, heated in the presence of 3H-neurotensin: improved thermostability
  thermostability, 3H-neurotensin (agonist) binding after the heating step: small but significant increase in thermostability

B4: S373A: NTR point mutant (protein, UniProt P20789 1-424, looked up, variant S373A)
Neurotensin receptor type 1: B1 Neurotensin receptor type 1 with A294T, S373A
[1]
  thermostability, heated in the presence of 3H-neurotensin: improved thermostability

B5: A385L: NTR point mutant (protein, UniProt P20789 1-424, looked up, variant A385L)
Neurotensin receptor type 1: B1 Neurotensin receptor type 1 with A294T, A385L
[1]
  thermostability, heated in the presence of 3H-neurotensin: improved thermostability
  thermostability, 3H-neurotensin (agonist) binding after the heating step: small but significant increase in thermostability

B6: F342A: NTR point mutant (protein, UniProt P20789 1-424, looked up, variant F342A)
Neurotensin receptor type 1: B1 Neurotensin receptor type 1 with A294T, F342A
[1]
  thermostability, heated in the presence of 3H-neurotensin: improved thermostability

B7: L310A: NTR point mutant (protein, UniProt P20789 1-424, looked up, variant L310A)
Neurotensin receptor type 1: B1 Neurotensin receptor type 1 with A294T, L310A
[1]
  thermostability, heated in the presence of 3H-neurotensin: improved thermostability

B8: G390A: NTR point mutant (protein, UniProt P20789 1-424, looked up, variant G390A)
Neurotensin receptor type 1: B1 Neurotensin receptor type 1 with A294T, G390A
[1]
  thermostability, heated in the presence of 3H-neurotensin: improved thermostability

B9: V313A: NTR point mutant (protein, UniProt P20789 1-424, looked up, variant V313A)
Neurotensin receptor type 1: B1 Neurotensin receptor type 1 with A294T, V313A
[1]
  thermostability, heated in the presence of 3H-neurotensin: improved thermostability

B10: F380A: NTR point mutant (protein, UniProt P20789 1-424, looked up, variant F380A)
Neurotensin receptor type 1: B1 Neurotensin receptor type 1 with A294T, F380A
[1]
  thermostability, heated in the presence of 3H-neurotensin: improved thermostability

B11: D345A: NTR point mutant (protein, UniProt P20789 1-424, looked up, variant D345A)
Neurotensin receptor type 1: B1 Neurotensin receptor type 1 with A294T, D345A
[1]
  thermostability, 3H-neurotensin (agonist) binding after the heating step: small but significant increase in thermostability

B12: H103A: NTR point mutant (protein, UniProt P20789 1-424, looked up, variant H103A)
Neurotensin receptor type 1: B1 Neurotensin receptor type 1 with H103A, A294T
[1]
  thermostability, heated in the presence of 3H-neurotensin: improved thermostability
  thermostability, 3H-neurotensin (agonist) binding after the heating step: small but significant increase in thermostability

B13: V360A: NTR point mutant (protein, UniProt P20789 1-424, looked up, variant V360A)
Neurotensin receptor type 1: B1 Neurotensin receptor type 1 with A294T, V360A
[1]
  thermostability, heated in the presence of 3H-neurotensin: improved thermostability

B14: N370A: NTR point mutant (protein, UniProt P20789 1-424, looked up, variant N370A)
Neurotensin receptor type 1: B1 Neurotensin receptor type 1 with A294T, N370A
[1]
  thermostability, heated in the presence of 3H-neurotensin: improved thermostability

B15: L308A: NTR point mutant (protein, UniProt P20789 1-424, looked up, variant L308A)
Neurotensin receptor type 1: B1 Neurotensin receptor type 1 with A294T, L308A
[1]
  thermostability, heated in the presence of 3H-neurotensin: improved thermostability

B16: G306A: NTR point mutant (protein, UniProt P20789 1-424, looked up, variant G306A)
Neurotensin receptor type 1: B1 Neurotensin receptor type 1 with A294T, G306A
[1]
  thermostability, heated in the presence of 3H-neurotensin: improved thermostability

B17: P389A: NTR point mutant (protein, UniProt P20789 1-424, looked up, variant P389A)
Neurotensin receptor type 1: B1 Neurotensin receptor type 1 with A294T, P389A
[1]
  thermostability, heated in the presence of 3H-neurotensin: improved thermostability

B18: Y349A: NTR point mutant (protein, UniProt P20789 1-424, looked up, variant Y349A)
Neurotensin receptor type 1: B1 Neurotensin receptor type 1 with A294T, Y349A
[1]
  thermostability, 3H-neurotensin (agonist) binding after the heating step: small but significant increase in thermostability

B19: V309A: NTR point mutant (protein, UniProt P20789 1-424, looked up, variant V309A)
Neurotensin receptor type 1: B1 Neurotensin receptor type 1 with A294T, V309A
[1]
  thermostability, heated in the presence of 3H-neurotensin: improved thermostability

B20: A203L: A2aR point mutant (protein, UniProt P29274 1-412, looked up, variant A203L)
Adenosine receptor A2a: MPIMGSSVYITVELAIAVLAILGNVLVCWAVWLNSNLQNVTNYFVVSLAAADIAVGVLAIPFAITISTGFCAACHGCLFIACFVLVLTQSSIFSLLAIAIDRYIAIRIPLRYNGLVTGTRAKGIIAICWVLSFAIGLTPMLGWNNCGQPKEGKNHSQGCGEGQVACLFEDVVPMNYMVYFNFFACVLVPLLLMLGVYLRIFLLARRQLKQMESQPLPGERARSTLQKEVHAAKSLAIIVGLFALCWLPLHIINCFTFFCPDCSHAPLWLMYLAIVLSHTNSVVNPFIYAYRIREFRQTFRKIIRSHVLRQQEPFKAAGTSARVLAAHGSDGEQVSLRLNGHPPGVWANGSAPHPERRPNGYALGLVSGGSAQESQGNTGLPDVELLSHELKGVCPEPPGLDDPLAQDGAGVS
[2]
  thermostability assayed with 3H-ZM241385 (antagonist): improved thermostability
  thermostability measured with 3H-NECA (agonist): improved thermostability

B21: E219A: A2aR point mutant (protein, UniProt P29274 1-412, looked up, variant E219A)
Adenosine receptor A2a: B20 Adenosine receptor A2a with L203A, E219A
[2]
  thermostability measured with 3H-NECA (agonist): improved thermostability

B22: Q210A: A2aR point mutant (protein, UniProt P29274 1-412, looked up, variant Q210A)
Adenosine receptor A2a: B20 Adenosine receptor A2a with L203A, Q210A
[2]
  thermostability measured with 3H-NECA (agonist): improved thermostability

B23: S213A: A2aR point mutant (protein, UniProt P29274 1-412, looked up, variant S213A)
Adenosine receptor A2a: B20 Adenosine receptor A2a with L203A, S213A
[2]
  thermostability measured with 3H-NECA (agonist): improved thermostability

B24: L208A: A2aR point mutant (protein, UniProt P29274 1-412, looked up, variant L208A)
Adenosine receptor A2a: B20 Adenosine receptor A2a with L203A, L208A
[2]
  thermostability measured with 3H-NECA (agonist): improved thermostability
